Source: patent US20230303623A1, “PEPTIDES AND METHODS OF USE” (REALTA LIFE SCIENCES, INC., priority 2020, published 2023)
Bridges are numbered along the chain shown (N, C = ends). Where no end group is shown, it is not given here. [ ]: non-standard residue; d: D form. R8 = C=CCCCCCC[C@@](C)(N)C(=O)O; S5 = C=CCCC[C@](C)(N)C(=O)O; Sar = CNCC(=O)O

Key:
MPO = molecular target: T1, MPO (Homo sapiens, UniProt P05164); experiment: MPO activity assay; assay type: biochemical; details: compared to parent peptide
T1 construct: purchased Lee BioSolutions (Maryland Heights, MO)
T1 sequence (P05164 279-745 limits assumed): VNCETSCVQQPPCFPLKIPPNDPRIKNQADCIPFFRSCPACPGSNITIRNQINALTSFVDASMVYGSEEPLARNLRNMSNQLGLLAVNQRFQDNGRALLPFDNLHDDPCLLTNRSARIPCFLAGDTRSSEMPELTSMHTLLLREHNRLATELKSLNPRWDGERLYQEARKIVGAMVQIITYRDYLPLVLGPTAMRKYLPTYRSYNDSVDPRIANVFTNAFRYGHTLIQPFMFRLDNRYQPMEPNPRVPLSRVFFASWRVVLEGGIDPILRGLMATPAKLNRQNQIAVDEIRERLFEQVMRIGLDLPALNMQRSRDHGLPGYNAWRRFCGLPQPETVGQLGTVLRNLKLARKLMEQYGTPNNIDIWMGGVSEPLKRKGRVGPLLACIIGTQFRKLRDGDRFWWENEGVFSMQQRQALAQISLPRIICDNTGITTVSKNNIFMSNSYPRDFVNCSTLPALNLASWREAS
T1 sequence (P05164 165-273 limits assumed): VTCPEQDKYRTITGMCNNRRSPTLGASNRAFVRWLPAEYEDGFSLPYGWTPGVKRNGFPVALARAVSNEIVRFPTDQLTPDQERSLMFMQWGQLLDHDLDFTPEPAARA
Description: The MPO activity assay was performed as previously described. Briefly, peptides were diluted to 12 mg/ml and serially titrated in a 96 well plate at a volume of 0.02 ml. MPO was diluted to 20 μg/ml and 0.02 ml was added to the titrated peptides. TMB (3,30,5,50-tetramethylbenzidine) (0.1 ml) was added to each well for 2 minutes, followed by 0.1 ml of 2.5 N H2SO4 for another 2 minutes, and then read on a 96 well plate reader (BioTek) at 450 nm.
To ascertain the inhibition of MPO activity by the various peptides, a range of concentrations of the stapled peptides and D-amino acid variants were tested (FIG. 3A-3B) and half-maximal activity levels were calculated from the dose-response curves (FIG. 6A-6C, respectively).

C1q [1] = molecular target: T2, C1q (Homo sapiens, UniProt P02745+P02746+P02747); experiment: Peptide binding to immobilized C1q (positive control), ELISA plate-based assay of Example 3; details: increasing amounts of peptide; positive control protein
T2 construct: purchased Complement Technology (Tyler, TX)
T2 sequence (P02745 23-245): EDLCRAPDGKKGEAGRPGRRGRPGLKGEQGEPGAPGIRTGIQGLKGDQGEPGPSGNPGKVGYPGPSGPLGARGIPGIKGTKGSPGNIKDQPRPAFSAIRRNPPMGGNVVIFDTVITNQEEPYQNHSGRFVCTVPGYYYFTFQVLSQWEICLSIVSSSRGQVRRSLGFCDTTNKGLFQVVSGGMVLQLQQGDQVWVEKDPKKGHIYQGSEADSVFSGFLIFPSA
T2 sequence (P02746 28-253): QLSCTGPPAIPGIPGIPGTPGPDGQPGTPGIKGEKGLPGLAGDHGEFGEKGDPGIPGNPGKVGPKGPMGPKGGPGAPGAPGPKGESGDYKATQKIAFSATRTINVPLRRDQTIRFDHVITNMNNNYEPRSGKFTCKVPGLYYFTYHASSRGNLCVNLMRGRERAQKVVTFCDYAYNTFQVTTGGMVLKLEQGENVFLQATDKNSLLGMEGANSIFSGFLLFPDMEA
T2 sequence (P02747 29-245): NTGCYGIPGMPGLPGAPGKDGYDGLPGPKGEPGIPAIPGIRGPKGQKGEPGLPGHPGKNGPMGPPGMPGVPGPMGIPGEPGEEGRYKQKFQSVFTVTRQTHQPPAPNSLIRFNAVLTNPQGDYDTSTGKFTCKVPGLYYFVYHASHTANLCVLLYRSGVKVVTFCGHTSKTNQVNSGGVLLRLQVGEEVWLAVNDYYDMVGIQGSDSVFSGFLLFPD
Description: (§1) RLS-0134 and RLS-0150 were allowed to bind to immobilized CTLA-4, PD-1, PD-L1 on the surface of the plate. Bound C1q and MAC-1 served as a positive and negative control for peptide binding, respectively. Increasing amounts of peptides were added to the plates followed by a rabbit polyclonal antibody that recognizes the peptides and then a secondary anti-rabbit antibody conjugated with HRP. The plate was then developed by addition of TMB as the substrate for the colorimetric assay.
(§2) The inventors further evaluated if RLS-0134 and RLS-0150 could bind to the well characterized checkpoint inhibitor, cytotoxic T-lymphocyte associated protein 4 (CTLA-4 aka CD152). […] Therefore, the pharmaceutical inhibition of CTLA-4 or its ligand has been considered a promising strategy by many cancer researchers and could be a therapeutic target in cancer immunotherapy. To ascertain the ability of select PIC1 peptides to bind CTLA-4, a binding assay was performed in which these proteins were coated on a microtiter plate followed by incubation with increasing amounts of either RLS-0134 and RLS-0150. Plates coated with PD-1, PD-L1 and C1q served as a positive control for peptide binding whereas MAC-1 served as a negative control for peptide binding.

CTLA-4 = molecular target: T3, CTLA-4 (Homo sapiens, UniProt P16410); experiment: Peptide binding to immobilized CTLA-4, ELISA plate-based assay; details: increasing amounts of peptide
T3 sequence (P16410 36-223): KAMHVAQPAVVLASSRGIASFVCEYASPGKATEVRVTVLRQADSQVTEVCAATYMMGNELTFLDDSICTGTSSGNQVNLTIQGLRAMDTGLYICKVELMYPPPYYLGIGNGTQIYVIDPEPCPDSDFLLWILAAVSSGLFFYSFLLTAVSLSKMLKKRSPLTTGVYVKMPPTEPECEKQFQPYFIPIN
Description: as §1, §2

PD-1 = PD-1 (Homo sapiens, UniProt Q15116); experiment: Peptide binding to immobilized PD-1, ELISA plate-based assay; details: increasing amounts of peptide
Chain of PD-1 (Q15116 25-288): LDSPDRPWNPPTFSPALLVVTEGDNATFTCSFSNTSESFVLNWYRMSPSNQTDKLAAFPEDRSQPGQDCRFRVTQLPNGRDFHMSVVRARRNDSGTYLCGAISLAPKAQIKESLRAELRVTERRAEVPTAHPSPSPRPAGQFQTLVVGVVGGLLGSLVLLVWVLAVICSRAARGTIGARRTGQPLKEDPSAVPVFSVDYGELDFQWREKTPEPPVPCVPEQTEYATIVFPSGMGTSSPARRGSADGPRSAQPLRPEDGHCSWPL
Description: as §1, §2

MAC-1 = MAC-1 (Homo sapiens, UniProt P05107+P11215); experiment: Peptide binding to immobilized MAC-1 (negative control), ELISA plate-based assay; details: increasing amounts of peptide; negative control protein
Chain of MAC-1 (P05107 23-769, other chains not shown): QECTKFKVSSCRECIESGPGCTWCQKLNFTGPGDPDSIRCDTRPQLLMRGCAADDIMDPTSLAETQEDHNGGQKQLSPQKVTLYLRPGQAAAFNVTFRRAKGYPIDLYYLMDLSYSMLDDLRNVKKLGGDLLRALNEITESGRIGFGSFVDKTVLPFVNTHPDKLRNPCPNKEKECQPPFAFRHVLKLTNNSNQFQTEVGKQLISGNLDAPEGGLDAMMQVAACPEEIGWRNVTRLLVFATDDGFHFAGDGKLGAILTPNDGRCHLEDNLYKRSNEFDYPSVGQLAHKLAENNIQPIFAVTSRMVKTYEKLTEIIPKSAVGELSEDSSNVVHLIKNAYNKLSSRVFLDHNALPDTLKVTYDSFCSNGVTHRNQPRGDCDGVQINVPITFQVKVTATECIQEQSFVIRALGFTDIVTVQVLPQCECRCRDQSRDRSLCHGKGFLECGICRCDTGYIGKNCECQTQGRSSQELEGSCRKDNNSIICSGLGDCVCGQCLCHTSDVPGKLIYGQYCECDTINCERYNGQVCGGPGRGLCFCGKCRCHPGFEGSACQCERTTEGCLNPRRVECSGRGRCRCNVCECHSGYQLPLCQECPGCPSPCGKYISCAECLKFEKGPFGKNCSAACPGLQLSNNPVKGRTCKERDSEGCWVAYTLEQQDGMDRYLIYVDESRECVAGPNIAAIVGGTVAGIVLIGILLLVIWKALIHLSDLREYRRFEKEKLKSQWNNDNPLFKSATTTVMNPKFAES
Description: as §1, §2

PD-L1 = PD-L1 (Homo sapiens, UniProt Q9NZQ7); experiment: Peptide binding to immobilized PD-L1, ELISA plate-based assay; details: increasing amounts of peptide
Chain of PD-L1 (Q9NZQ7 19-290): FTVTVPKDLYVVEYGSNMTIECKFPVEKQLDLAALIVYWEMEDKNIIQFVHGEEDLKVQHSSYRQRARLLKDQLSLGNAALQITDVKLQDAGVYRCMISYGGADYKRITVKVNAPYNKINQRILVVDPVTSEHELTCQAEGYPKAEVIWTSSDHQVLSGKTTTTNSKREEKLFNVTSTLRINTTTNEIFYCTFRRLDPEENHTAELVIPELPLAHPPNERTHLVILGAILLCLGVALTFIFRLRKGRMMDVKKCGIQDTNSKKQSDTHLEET
Description: as §1, §2

[2] = system: antibody-initiated complement activation (lysis of AB human red blood cells by type O serum); experiment: ABO incompatibility hemolytic complement assay (CH50-type); assay type: cell-based; details: peptides 0.8 mg/ml (~0.5 mM); compared to parent peptide
Description: FIG. 1A-1B show PIC1 peptides' inhibition of complement activation in an ABO incompatibility assay. […] Inhibition of ABO incompatibility hemolysis in a CH50-type assay. Peptides are at a final concentration of 0.5 mM. Values are represented as a percent of the positive control, which consists of human 0 sera and AB red blood cells in GVBS^++ buffer. Data are the means of n=3 independent experiments±SEM.
For hemolytic complement assays, human red blood cells (RBCs) from type AB donors were purified, washed, and standardized to 1.0×10^9 cells/ml, as previously described. Human sera from type 0 donors at a 15% final concentration was combined with 0.5 mM of the peptides and the volume was brought up to 0.2 ml with GVBS^++ and 5.0×10^7 RBCs. The samples were incubated for 1 hour at 37° C. and then spun at 3,000 rpm for 5 minutes and the supernatant was collected and read at 412 nm. Values are represented as a percent of the positive control, which consists of human 0 sera and AB red blood cells in GVBS^++ buffer.
To assess the extent to which the peptide variants inhibit antibody-initiated complement activation, an ABO incompatibility ex vivo assay was utilized in which purified erythrocytes from a ‘type AB+’ donor are incubated with sera from a ‘type 0’ subject containing anti-A and anti-B antibodies. Peptides were tested at a concentration of 0.8 mg/ml (˜0.5 mM).

[3] = Total Antioxidant Capacity (TAC) assay; details: highest peptide concentration 1.5 mM; compared to parent peptide
Description: As previously reported, the TAC (Total Antioxidant Capacity) Assay (Cell Biolabs, Inc, San Diego, CA) was used to measure the antioxidant capacity of the PIC1 variants based on the reduction of copper (II) to copper (I). The kit protocol was performed per the manufacturer's recommendations.
The antioxidant properties for the PIC1 variants were evaluated in a Total Antioxidant Capacity (TAC) assay, as previously reported. Total antioxidant activity over a range of peptide concentrations were determined for the stapled and the D-amino acid peptides based on the PA-I8Sar and PA-C9Sar backbones (FIG. 4A-4B), with the activity of the highest peptide concentration reported (1.5 mM) (FIG. 5A-5C).

C1q [4] = molecular target: T2, C1q; experiment: C1q binding ELISA-type assay; details: compared to parent peptide
Description: The C1q binding assay was performed as previously described. Briefly, an Immunlon-2 HB ELISA plate was coated with 1 μg/ml C1q in bicarbonate buffer overnight at 4° C. The plates were washed with PBS-T (phosphate buffered saline+0.1% Tween) and then blocked with 1% gelatin/PBS for 2 hours at room temperature. After washing, the plates were incubated with the peptides starting at 2.5 mg/ml and then serially diluted in 1% gelatin/PBS for 1 hour at room temperature followed by washing. Plates were then probed with rabbit antibody raised against the lead peptide […] (SEQ ID NO: 2) that lacked PEGylation at 1:1000 in 1% gelatin/PBS for 1 hour at room temperature followed by a goat anti-rabbit HRP (Sigma Aldrich, St Louis, MO) at 1:1,000 in 1% gelatin/PBS for 1 hour at room temperature with a washing step in between. After addition of TMB substrate solution to the wells, the reaction was stopped using 1N H2SO4, and the plate read on a BioTek Synergy HT plate reader at 450 nm.
The astrovirus capsid protein and the PIC1 molecules derived from it inhibit classical complement pathway activation by binding to the pattern recognition molecule C1q. The inventors next tested peptide variant binding to C1q in an ELISA-type assay in which C1q is used as the capture substrate and bound peptide detected with a rabbit polyclonal antibody against the peptide portion of PA-dPEG24 ([…]-d24; SEQ ID NO: 3). Binding curves were derived for the stapled and D-amino acid peptides based on the PA-I8Sar and PA-C9Sar (FIG. 5A-5C) backbone, from which half-maximal binding concentrations were calculated (FIGS. 2A and B, respectively). […] For the peptides based on the PA-C9Sar backbone, C1q was bound to a greater degree than the parent peptide (FIG. 2B).

Substance: IAR8ILEP(Sar)CS5QERAA (IA[R8]ILEP[Sar]C[S5]QERAA; staple 3-10; not fully specified; printed as IAR8ILEP(Sar)CS5QERAA) [PA-0134]
- inhibition of MPO activity (half-maximal values), in words (MPO): reduced inhibition of MPO activity
- binding to C1q, in words (C1q [1]): dose-dependent binding
- binding to CTLA-4, in words (CTLA-4): bound CTLA-4
- binding to PD-1, in words (PD-1): dose-dependent binding
- binding to MAC-1, in words (MAC-1): minimal binding
- binding to PD-L1, in words (PD-L1): dose-dependent binding
- inhibition of ABO incompatible hemolysis (complement inhibition), in words [2]: similar
- total antioxidant capacity, in words [3]: decreased activity compared to the parent peptide
- binding to C1q (binding curves, half-maximal binding), in words (C1q [4]): markedly increased binding to C1q
